For assay [1], the target named is T1, Acro SARS-CoV-2 (COVID-19) S1 protein (SARS-CoV-2, UniProt P0DTC2 16-685).
T1 construct: also called SARS-CoV-2 S1
The assay is described as follows: SPR.

For assay [2], the target named is SARS-COV2-S1 RBD (mouse IgG2Fc tag) (SARS-CoV-2, UniProt P0DTC2 319-537). Nature of the assay: FACS, S1 RBD-mFc on Vero E6 (ACE2). (In flow cytometry, cells or beads pass a laser one at a time.)
Assay [3] shares this target.
Assay [4] has as its target T2, Acro SARS-CoV-2 (COVID-19) S1 protein (SARS-CoV-2, UniProt P0DTC2 16-685).
T2 construct: also called SARS-CoV-2 S1
The assay is described as follows: SPR. The source holds these as a separate data set. (In general: In SPR one partner is held on a chip, and binding of the other changes the refractive index at the surface.)

Assay [5] deals with SARS-CoV-2 spike on live SARS-CoV-2 virus (SARS-CoV-2, UniProt P0DTC2 14-1273). Nature of the assay: cell-based or functional assay.
Assay [6] deals with T3, COVID S1 RBD Fc fusion (Antigen 1) (SARS-CoV-2, UniProt P0DTC2 319-541).
T3 construct: domain: S1 RBD
The assay is described as follows: phage ELISA. On the technique in general: In an ELISA, binding on a coated surface is turned into a signal by an enzyme label.

For assay [7], the target named is T4, COVID S1 RBM Fc fusion (Antigen 2) (SARS-CoV-2, UniProt P0DTC2 437-508).
T4 construct: domain: S1 RBM
Nature of the assay: phage ELISA.

The target in assay [8] is T5, SARS-CoV-2 S1 protein (SARS-CoV-2, UniProt P0DTC2 16-685).
T5 construct: also called SARS-CoV-2 Spike Glycoprotein S1; S1 (subunit 1)
Nature of the assay: phage ELISA screen on S1, mean.

Residue numbers refer to the chain shown, from its start. Where two headings read alike, the source gives them in different places.

B1: variant 5-37 (Fc fusion)
VHH: EVQLVESGGGLVQPGGSLRLSCAASGSTFSINAMGWFRQAPGKEREFVGGISRSGATTNYADSVKGRFTISADNSKNTAYLQMNSLKPEDTAVYYCAADGVPEYSDYASGPVWGQGTLVTVSS
notes: VHH-Fc
For B1, the Kd in assay [1] turned out to be 0.0302 µM. Further, in assay [2], the “Competition Factor” value was found to be 8.19.

B2: variant 6-65 (Fc fusion)
VHH: EVQLVESGGGLVQPGGSLRLSCAASGLPFSTLHMGWFRQAPGKEREFVASLSIFGATGYADSVKGRFTISADNSKNTAYLQMNSLKPEDTAVYYCWMYYYDSSGYYGNYYYGMDVWGQGTLVTVSS
Take B2: inhibition in assay [3] was half-maximal at 0.0375 µM (IC50).

B3: variant 6-10 (Fc fusion)
VHH: EVQLVESGGGLVQPGGSLRLSCAASGSIASIHAMGWFRQAPGKEREFVAAISRSGGFGSYADSVKGRFTISADNSKNTAYLQMNSLKPEDTAVYYCARDDKYYDSSGYPAYFQHWGQGTLVTVSS
B3 came in with an IC50 in assay [3] of 0.00144 µM. The molecule further registered a Kd in assay [4] of 0.0297 µM.

B4: variant 6-44 (Fc fusion)
VHH: EVQLVESGGGLVQPGGSLRLSCAASGGTFGVYHMGWFRQAPGKEREFIGRITWTDGSTYYADSVKGRFTISADNSKNTAYLQMNSLKPEDTAVYYCFGLLEVYDMTFDYWGQGTLVTVSS
B4 returned an IC50 in assay [3] of 0.00097 µM. Binding in assay [4] was characterised by a dissociation constant (Kd) of 0.0082 µM. Also, the “EC80” value in assay [5] was found to be 3.16 mg/L.

B5: variant 2-9 (antibody, V domains shown)
VH: EVQLLESGGGLVQPGGSLRLSCAASGFTFPRYAMSWVRQAPGKGLEWVSTISGSGSTTYYADSVKGRFTISRDNSKNTLYLQMNSLRAEDTAVYYCARLIDAFDIWGQGTLVTVSS
VL: DIQMTQSPSSLSASVGDRVTITCRASQRIGTYLNWYQQKPGKAPKLLIYAASNLEGGVPSRFSGSGSGTDFTLTISSLQPEDFATYYCQQNYSTTWTFGQGTKVEIK
Turning to B5, the “specificity ELISA, fold over background” value in assay [6] is 24.3 fold over background; in assay [7], 0.8 fold over background. The entries for the “specificity ELISA, percent binding relative to Acro S1” value in assay [6] and in assay [7] were 101% and 3.5%, respectively.

B6: variant 6-67 (Fc fusion)
VHH: EVQLVESGGGLVQPGGSLRLSCAASGSFSNYAMGWFRQAPGKEREFVAAISSSGALTSYADSVKGRFTISADNSKNTAYLQMNSLKPEDTAVYYCWIVGPGPLDGMDVWGQGTLVTVSS
Turning to B6, the IC50 in assay [3] worked out at 0.0038 µM.

B7: variant 6-1 (Fc fusion)
VHH: EVQLVESGGGLVQPGGSLRLSCAASGRTFGNYNMGWFRQAPGKEREFVATINSLGGTSYADSVKGRFTISADNSKNTAYLQMNSLKPEDTAVYYCARVDYYMDVWGQGTLVTVSS
For the molecule B7, in assay [3], the midpoint of inhibition, the IC50, lay at 0.0158 µM.

B8: variant 6-18 (Fc fusion)
VHH: EVQLVESGGGLVQPGGSLRLSCAASGLTFRNYAMGWFRQAPGKEREFIAGMMWSGGTTTYADSVKGRFTISADNSKNTAYLQMNSLKPEDTAVYYCAREGYYYDSSGYLNYFDYWGQGTLVTVSS
B8 showed an IC50 in assay [3] of 0.0123 µM. In assay [4], this molecule yielded a Kd of 0.0301 µM.

B9: variant 6-45 (Fc fusion)
VHH: EVQLVESGGGLVQPGGSLRLSCAASGNMFSINAMGWFRQAPGKEREFVTLISWSSGRTSYADSVKGRFTISADNSKNTAYLQMNSLKPEDTAVYYCASLGYCSGGSCFDYWGQGTLVTVSS
In turn, B9 gave an IC50 in assay [3] of 0.00116 µM. The molecule further gave a Kd in assay [4] of 0.0175 µM. In assay [5], the “EC80” value is 4.02 mg/L.

B10: variant 6-40 (Fc fusion)
VHH: EVQLVESGGGLVQPGGSLRLSCAASGFTFSDYWMGWFRQAPGKERELVARVWWNGGSAYYADSVKGRFTISADNSKNTAYLQMNSLKPEDTAVYYCAREVLRQQVVLDYWGQGTLVTVSS
With B10, the IC50 in assay [3] stood at 0.00136 µM.

B11: variant 6-39 (Fc fusion)
VHH: EVQLVESGGGLVQPGGSLRLSCAASGFTFSPSWMGWFRQAPGKEREFVAAISWSGGSTAYADSVKGRFTISADNSKNTAYLQMNSLKPEDTAVYYCHGLGEGDPYGDYEGYFDLWGQGTLVTVSS
B11 came in with an IC50 in assay [3] of 0.00153 µM. This molecule also had a Kd in assay [4] of 0.0113 µM.

B12: variant 5-20 (Fc fusion)
VHH: EVQLVESGGGLVQPGGSLRLSCAASGRTIVPYTMGWFRQAPGKERELVAAISPSAFTEYADSVKGRFTISADNSKNTAYLQMNSLKPEDTAVYYCAARRWGYDWGQGTLVTVSS
notes: VHH-Fc
The molecule B12 yielded a Kd in assay [1] of 0.0143 µM. For the same molecule, in assay [2], the “Competition Factor” value worked out at 12.4.

B13: variant 6-47 (Fc fusion)
VHH: EVQLVESGGGLVQPGGSLRLSCAASGRTFSMHAMGWFRQAPGKERELVASITYGGNINYADSVKGRFTISADNSKNTAYLQMNSLKPEDTAVYYCAKEGYYDSTGYRTYFQQWGQGTLVTVSS
In turn, B13 registered an IC50 in assay [3] of 0.00586 µM.

B14: variant 6-20 (Fc fusion)
VHH: EVQLVESGGGLVQPGGSLRLSCAASGSTLPYHAMGWFRQAPGKEREFVAAITWNGASTSYADSVKGRFTISADNSKNTAYLQMNSLKPEDTAVYYCARDRYYDTSASYFESETWGQGTLVTVSS
notes: VHH-Fc
In the case of B14, the Kd in assay [1] was 0.0209 µM. In addition, the “Competition Factor” value in assay [2] was found to be 9.95.

B15: variant 5-34 (Fc fusion)
VHH: EVQLVESGGGLVQPGGSLRLSCAASGRTFSRYIMGWFRQAPGKEREFVAAISWSGGDNTYYADSVKGRFTISADNSKNTAYLQMNSLKPEDTAVYYCAAYRIVVGGTSPGDWRWGQGTLVTVSS
notes: VHH-Fc
With B15, the “Competition Factor” value in assay [2] was 5.69.

B16: variant 6-41 (Fc fusion)
VHH: EVQLVESGGGLVQPGGSLRLSCAASGFTFSTSWMGWFRQAPGKEREFVASINEYGGRNYADSVKGRFTISADNSKNTAYLQMNSLKPEDTAVYYCAGLHYYYDSSGYNPTEYYGMDVWGQGTLVTVSS
As to B16, in assay [3], inhibition was half-maximal at 0.0066 µM (IC50).

B17: variant 6-57 (Fc fusion)
VHH: EVQLVESGGGLVQPGGSLRLSCAASGLTFDDHSMGWFRQAPGKEREFVAAVPLSGNTYYADSVKGRFTISADNSKNTAYLQMNSLKPEDTAVYYCASFSGGPADFDYWGQGTLVTVSS
Consider B17, for which the IC50 in assay [3] is 0.00313 µM.

B18: variant 6-54 (Fc fusion)
VHH: EVQLVESGGGLVQPGGSLRLSCAASGFEFENHWMGWFRQAPGKEREYVAHITAGGLSNYADSVKGRFTISADNSKNTAYLQMNSLKPEDTAVYYCGRHWGIYDSSGFSSFDYWGQGTLVTVSS
Turning to B18, inhibition in assay [3] was half-maximal at 0.0089 µM (IC50).

B19: variant 6-34 (Fc fusion)
VHH: EVQLVESGGGLVQPGGSLRLSCAASGSAFRSNAMGWFRQAPGKEREFVAHISWSSKSTYYADSVKGRFTISADNSKNTAYLQMNSLKPEDTAVYYCATYCSSTSCFDYWGQGTLVTVSS
Consider B19, for which, in assay [3], the IC50 was 0.00824 µM. For the same molecule, binding in assay [4] was characterised by a dissociation constant (Kd) of 0.0213 µM.

B20: variant 6-38 (Fc fusion)
VHH: EVQLVESGGGLVQPGGSLRLSCAASGNTFSGGFMGWFRQAPGKEREFVAVISSLSSKSYADSVKGRFTISADNSKNTAYLQMNSLKPEDTAVYYCAKVDSGYDYWGQGTLVTVSS
For the molecule B20, the IC50 in assay [3] was 0.00194 µM. The molecule also came in with a Kd in assay [4] of 0.0266 µM.

B21: variant 6-30 (Fc fusion)
VHH: EVQLVESGGGLVQPGGSLRLSCAASGFAFGDSWMGWFRQAPGKEREFVATINWSGVTAYADSVKGRFTISADNSKNTAYLQMNSLKPEDTAVYYCARADGYFDYWGQGTLVTVSS
As to B21, 0.00294 µM corresponded to half-maximal inhibition in assay [3] (IC50). In assay [4], this molecule came in with a Kd of 0.0118 µM.

B22: variant 6-7 (Fc fusion)
VHH: B21 VHH with A28T, G30S, D31S, S32Y, G100D
For B22, the IC50 in assay [3] came out at 0.00153 µM.

B23: variant 6-77 (Fc fusion)
VHH: EVQLVESGGGLVQPGGSLRLSCAASGFTFDRSWMGWFRQAPGKEREFVAAVTEGGTTSYADSVKGRFTISADNSKNTAYLQMNSLKPEDTAVYYCARADYDFDYWGQGTLVTVSS
In assay [3], B23 displayed an IC50 of 0.00404 µM. The same molecule came in with a Kd in assay [4] of 0.0246 µM.

B24: variant 6-26 (Fc fusion)
VHH: EVQLVESGGGLVQPGGSLRLSCAASGDTFSTSWMGWFRQAPGKEREFVATINTGGGTNYADSVKGRFTISADNSKNTAYLQMNSLKPEDTAVYYCARVTTSFDYWGQGTLVTVSS
notes: VHH-Fc
On to B24, for which the affinity in assay [1], expressed as Kd, was 0.0387 µM. Moreover, the “Competition Factor” value in assay [2] came to 6.41.

B25: 2-4 (antibody, V domains shown)
VH: EVQLLESGGGLVQPGGSLRLSCAASGFTFSDFAMAWVRQAPGKGLEWVSAISGSGDITYYADSVKGRFTISRDNSKNTLYLQMNSLRAEDTAVYYCAREADGLHSPWHFDLWGQGTLVTVSS
VL: DIQMTQSPSSLSASVGDRVTITCRASQSIDTYLNWYQQKPGKAPKLLIYAASALASGVPSRFSGSGSGTDFTLTISSLQPEDFATYYCQQSYSAPPYTFGQGTKVEIK
notes: also called variant 2-4
Take B25: in assay [8], the “ELISA(Avg)” value amounted to 15.5 fold over background.

B26: variant 5-1 (Fc fusion)
VHH: EVQLVESGGGLVQPGGSLRLSCAASGGTFSSIGMGWFRQAPGKEREFVAAISWDGGATAYADSVKGRFTISADNSKNTAYLQMNSLKPEDTAVYYCAKEDVGKPFDWGQGTLVTVSS
notes: VHH-Fc
For B26, the Kd in assay [1] stood at 0.0151 µM. Moreover, the “Competition Factor” value in assay [2] came to 10.

The term Kd denotes the constant that tells how readily two partners part at equilibrium. A low value points to higher affinity. A word on the IC50: it is the concentration that gives 50% inhibition. Lower therefore signals higher potency. Broadly, the EC80 is the concentration needed for an effect of 80%.
